T1: Human Papillomavirus 1a E2 (Human Papillomavirus 1a, UniProt P03118 1-401)
T1 construct: also called HPV 1a E2; cbe_251917
T1 sequence: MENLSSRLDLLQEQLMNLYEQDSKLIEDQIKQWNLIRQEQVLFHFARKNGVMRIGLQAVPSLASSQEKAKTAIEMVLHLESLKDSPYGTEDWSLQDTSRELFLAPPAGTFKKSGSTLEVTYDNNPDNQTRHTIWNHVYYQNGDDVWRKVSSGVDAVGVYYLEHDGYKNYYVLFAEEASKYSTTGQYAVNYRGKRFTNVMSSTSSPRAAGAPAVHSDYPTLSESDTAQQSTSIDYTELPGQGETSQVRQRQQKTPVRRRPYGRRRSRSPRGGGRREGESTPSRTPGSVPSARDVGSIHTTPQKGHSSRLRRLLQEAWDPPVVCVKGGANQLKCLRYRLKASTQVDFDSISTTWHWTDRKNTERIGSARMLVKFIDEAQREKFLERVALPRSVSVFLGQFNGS

T2: gbh_al121903 (human, UniProt Q9Y6D5 1145-1785)
T2 construct: also called cbe_3473488
T2 sequence: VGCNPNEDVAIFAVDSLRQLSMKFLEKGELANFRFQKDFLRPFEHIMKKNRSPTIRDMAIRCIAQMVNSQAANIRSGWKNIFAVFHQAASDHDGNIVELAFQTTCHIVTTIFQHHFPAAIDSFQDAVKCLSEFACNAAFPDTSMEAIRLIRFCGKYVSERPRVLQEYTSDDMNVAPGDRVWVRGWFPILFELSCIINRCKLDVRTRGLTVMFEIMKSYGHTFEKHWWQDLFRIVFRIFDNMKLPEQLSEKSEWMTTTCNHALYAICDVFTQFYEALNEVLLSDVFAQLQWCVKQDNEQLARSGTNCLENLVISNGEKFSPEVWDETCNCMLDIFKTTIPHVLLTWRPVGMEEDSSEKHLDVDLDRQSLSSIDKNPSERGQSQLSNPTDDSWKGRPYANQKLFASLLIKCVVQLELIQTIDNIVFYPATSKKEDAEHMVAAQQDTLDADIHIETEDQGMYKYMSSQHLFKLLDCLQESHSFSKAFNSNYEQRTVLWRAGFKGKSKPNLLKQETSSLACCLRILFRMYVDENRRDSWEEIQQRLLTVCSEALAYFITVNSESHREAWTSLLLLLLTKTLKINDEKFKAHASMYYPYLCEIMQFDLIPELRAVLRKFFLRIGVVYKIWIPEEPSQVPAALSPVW

T3: Human papillomavirus 16 L1 (Human papillomavirus 16, UniProt P03101 1-505)
T3 construct: also called HPV 16 L1; cbe_251784
T3 sequence: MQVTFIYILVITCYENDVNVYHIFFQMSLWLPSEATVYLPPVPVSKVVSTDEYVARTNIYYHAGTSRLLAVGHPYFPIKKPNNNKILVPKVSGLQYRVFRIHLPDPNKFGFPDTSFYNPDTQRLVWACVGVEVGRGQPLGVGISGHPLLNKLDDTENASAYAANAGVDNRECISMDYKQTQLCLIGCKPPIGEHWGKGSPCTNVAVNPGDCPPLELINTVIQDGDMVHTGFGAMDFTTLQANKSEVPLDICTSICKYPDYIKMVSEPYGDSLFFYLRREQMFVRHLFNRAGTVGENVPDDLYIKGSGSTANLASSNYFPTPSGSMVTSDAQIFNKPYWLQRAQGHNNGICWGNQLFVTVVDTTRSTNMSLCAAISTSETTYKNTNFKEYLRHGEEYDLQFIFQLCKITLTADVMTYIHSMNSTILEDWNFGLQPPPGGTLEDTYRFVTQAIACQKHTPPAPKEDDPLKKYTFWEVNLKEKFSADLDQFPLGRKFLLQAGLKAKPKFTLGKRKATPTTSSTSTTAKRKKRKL

B1: hypothetical protein MGC3222 (other)
chain: VVSPDSIHSVAPENEGRLVHIIGALRTSKLLSDPNYGVHLPAVKLRRHVEMYQWVETEESREYTEDGQVKKETRYSYNTEWRSEIINSKNFDREIGHNNPSAMAVESFTATAPFVQIGRFFLSSGLIDKVDNFKSLSLSKLEDPHVDIIRRGDFFYHSENPKYPEVGDLRVSFSYAGLSGDDPDLGPAHVVTVIARQRGDQLVPFSTKSGDTLLLLHHGDFSAEVSAVPYSYGGGTSMSFLPSSGYLIRSHYQGS
notes: also called cbe_3583511
B2: Human papillomavirus 16 L2 (other)
chain: MRHKRSAKRTKRASATQLYKTCKQAGTCPPDIIPKVEGKTIAVQILQYGSMGVFFGGLGIGTGSGTGGRTGYIPLGTRPPTATDTLAPVRPPLTVDPVGPSDPSIVSLVEETSFIDAGAPTSVPSIPPDVSGFSITTSTDTTPAILDINNTVTTVTTHNNPTFTDPSVLQPPTPAETGGHFTLSSSTISTHNYEEIPMDTFIVSTNPNTVTSSTPIPGSRPVARLGLYSRTTQQVKVVDPAFVTTPTKLITYDNPAYEGIDVDNTLYFSSNDNSINIAPDPDFLDIVALHRPALTSRRTGIRYSRIGNKQTLRTRSGKSIGAKVHYYYDLSTIDPAEEIELQTITPSTYTTTSHAASPTSINNGLYDIYADDFITDTSTTPVPSVPSTSLSGYIPANTTIPFGGAYNIPLVSGPDIPINITDQAPSLIPIVPGSPQYTIIADAGDFYLHPSYYMLRKRRKRLPYFFSDVSLAA
notes: also called HPV 16 L2; cbe_251737
B3: chemokine-like factor 1 (other)
chain: MDNVQPKIKHRPFCFSVKGHVKMLRLALTVTSMTFFIIAQAPEPYIVITGFEVTVILFFILLYVLRLDRLMKWLFWPLLDIINSLVTTVFMLIVSVLALIPETTTLTVGGGVFALVTAVCCLADGALIYRKLLFNPSGPYQKKPVHEKKEVL
notes: also called HSPC224; CKLF1
B4: eukaryotic translation initiation factor 2B, subunit 2 beta, 39 kDa (other)
chain: MPGSAAKGSELSERIESFVETLKRGGGPRSSEEMARETLGLLRQIITDHRWSNAGELMELIRREGRRMTAAQPSETTVGNMVRRVLKIIREEYGRLHGRSDESDQQESLHKLLTSGGLNEDFSFHYAQLQSNIIEAINELLVELEGTMENIAAQALEHIHSNEVIMTIGFSRTVEAFLKEAARKRKFHVIVAECAPFCQGHEMAVNLSKAGIETTVMTDAAIFAVMSRVNKVIIGTKTILANGALRAVTGTHTLALAAKHHSTPLIVCAPMFKLSPQFPNEEDSFHKFVAPEEVLPFTEGDILEKVSVHCPVFDYVPPELITLFISNIGGNAPSYIYRLMSELYHPDDHVL
notes: also called EIF2B2; cbe_3625721
B5: HCDI protein (other)
chain: MGWRRKRVPQRGRKAPPPQLHGNINNLYFPIRWRDRLHWDSPNPAAECQRHEVTLVSRKPGPGRITWDELAASGLPSCDAAVNLAGENILNPLRRWNETFQKEVLGSRLETTQLLAKAITKAPQPPKAWVLVTGVAYYQPSLTAEYDEDSPGGDFDFFSNLVTKWEAAARLPGDSTRQVVVRSGVVLGRGGGAMGHMLLPFRLGLGGPIGSGHQFFPWIHIGDLAGILTHALEANHVHGVLNGVAPSSATNAEFAQTLGAALGRRAFIPLPSAVVQAVFGRQRAIMLLEGQKVIPQRTLATGYQYSFPELGAALKEIVA
notes: also called cbe_1505425
B6: KIAA0276 (other)
chain: MHSDAAAVNFQLNSHLSTLANIHKIYHTLNKLNLTEDIGQDDHQTGSLRSCSSSDCFNKVMPPRKKRRPASGDDLSAKKSRHDSMYRKYDSTRIKTEEEAFSSKRCLEWFYEYAGTDDVVGPEGMEKFCEDIGVEPENVVMLVLAWKLDAQNMGYFTLQEWLKGMTSLQCDTTEKLRNTLDYLRSFLNDSTNFKLIYRYAFDFAREKDQRSLDINTAKCMLGLLLGKIWPLFPVFHQFLEQSKYKVINKDQWCNVLEFSRTINLDLSNYDEDGAWPVLLDEFVEWYKDKQMS
notes: also called cbe_4270335
B7: Prey2777 (other)
chain: MNPVPHWGEVFLLVGGEGEHLASQGTTPARDHRVGISPASQQAQPESWRRRQRDKGVDPEKAPSLTRQSQNPPSLTAPLGMPSACSCLPCGPAPEAAIILAGPPTALTVLPKGTGLKKSKRLLLESLMRRRIAHLKWGLPRRILESYFLFNFLGSCSLTLAGARLSGLNTGQELQAQQERYCEAQGSPPGLKSPERFQRVQRPDRKSSKLPIQARALERNRPHMSEPIKHFHPA
notes: also called FLJ23584; hypothetical protein FLJ23584
B8: low molecular mass ubiquinone-binding protein (9.5 kD) (other)
chain: MGREFGNLTRMRHVISYSLSPFEQRAYPHVFTKGIPNVLRRIRESFFRVVPQFVVFYLIYTWGTEEFERSKRRIQLPMKMTNEQRIRMTVPCL
notes: also called QP-C; cbe_1710
B9: crystallin, alpha B (other)
chain: MDIAIHHPWIRRPFFPFHSPSRLFDQFFGEHLLESDLFPTSTSLSPFYLRPPSFLRAPSWFDTGLSEMRLEKDRFSVNLDVKHFSPEELKVKVLGDVIEVHGKHEERQDEHGFISREFHRKYRIPADVDPLTITSSLSSDGVLTVNGPRKQVSGPERTIPITREEKPAVTAAPKK
notes: also called CRYAB; cbe_4281271
B10: Rab coupling protein (other)
chain: MSLMVSAGRGLGAVWSPTHVQVTVLQARGLRAKGPGGTSDAYAVIQVGKEKYATSVSERSLGAPVWREEATFELPSLLSSGPAAAATLQLTVLHRALLGLDKFLGRAEVDLRDLHRDQGRRKTQWYKLKSKPGKKDKERGEIEVDIQFMRNNMTASMFDLSMKDKSRNPFGKLKDKIKGKNKDSGSDTASAIIPSTTPSVDSDDESVVKDKKKKSKIKTLLSKSNLQKTPLSQSMSVLPTSKPEKVLLRPGDFQSQWDEDDNEDESSSASDVMSHKRTASTDLKQLNQVNFTLPKKEGLSFLGGLRSKNDVLSRSNVCINGNHVYLEQPQPTGEIKDSSPSSSPSPKGFRKKTLFSSTENLAAGSWKEPAEGGGLSTDRDVSESSTKDSLKSMTLPTYRPAPLISGDLREKMAPANSEATKEAKESKKPESRRSSLLSLMTGKKDVAKGSEGENLLTVPGREKEGMLMGVKPGEDASGPAEDLVRRSEKDTAAVVSRQGSSLNLFEDVQITEPEAEPESKSEPRPPISSPRAPQTRAVKPRLHPVKPMNATATKVANCSLGTATIISENLNNEVMMKKYSPSDPAFAYAQLTHDELIQLVLKQKETISKKEFQVRELEDYIDNLLVRVMEETPNILRIPTQVGKKAGKM
notes: also called Hs.30289; RCP

Legend:
[1] = target: T1, Human Papillomavirus 1a E2; assay: Y2H; INT ID 415
[2] = target: T4, signal-induced proliferation-associated 1 like 1 (human, UniProt O43166 1-1804); assay: Y2H; INT ID 184
T4 construct: also called KIAA0440; cbe_3056756
T4 sequence (O43166 whole entry): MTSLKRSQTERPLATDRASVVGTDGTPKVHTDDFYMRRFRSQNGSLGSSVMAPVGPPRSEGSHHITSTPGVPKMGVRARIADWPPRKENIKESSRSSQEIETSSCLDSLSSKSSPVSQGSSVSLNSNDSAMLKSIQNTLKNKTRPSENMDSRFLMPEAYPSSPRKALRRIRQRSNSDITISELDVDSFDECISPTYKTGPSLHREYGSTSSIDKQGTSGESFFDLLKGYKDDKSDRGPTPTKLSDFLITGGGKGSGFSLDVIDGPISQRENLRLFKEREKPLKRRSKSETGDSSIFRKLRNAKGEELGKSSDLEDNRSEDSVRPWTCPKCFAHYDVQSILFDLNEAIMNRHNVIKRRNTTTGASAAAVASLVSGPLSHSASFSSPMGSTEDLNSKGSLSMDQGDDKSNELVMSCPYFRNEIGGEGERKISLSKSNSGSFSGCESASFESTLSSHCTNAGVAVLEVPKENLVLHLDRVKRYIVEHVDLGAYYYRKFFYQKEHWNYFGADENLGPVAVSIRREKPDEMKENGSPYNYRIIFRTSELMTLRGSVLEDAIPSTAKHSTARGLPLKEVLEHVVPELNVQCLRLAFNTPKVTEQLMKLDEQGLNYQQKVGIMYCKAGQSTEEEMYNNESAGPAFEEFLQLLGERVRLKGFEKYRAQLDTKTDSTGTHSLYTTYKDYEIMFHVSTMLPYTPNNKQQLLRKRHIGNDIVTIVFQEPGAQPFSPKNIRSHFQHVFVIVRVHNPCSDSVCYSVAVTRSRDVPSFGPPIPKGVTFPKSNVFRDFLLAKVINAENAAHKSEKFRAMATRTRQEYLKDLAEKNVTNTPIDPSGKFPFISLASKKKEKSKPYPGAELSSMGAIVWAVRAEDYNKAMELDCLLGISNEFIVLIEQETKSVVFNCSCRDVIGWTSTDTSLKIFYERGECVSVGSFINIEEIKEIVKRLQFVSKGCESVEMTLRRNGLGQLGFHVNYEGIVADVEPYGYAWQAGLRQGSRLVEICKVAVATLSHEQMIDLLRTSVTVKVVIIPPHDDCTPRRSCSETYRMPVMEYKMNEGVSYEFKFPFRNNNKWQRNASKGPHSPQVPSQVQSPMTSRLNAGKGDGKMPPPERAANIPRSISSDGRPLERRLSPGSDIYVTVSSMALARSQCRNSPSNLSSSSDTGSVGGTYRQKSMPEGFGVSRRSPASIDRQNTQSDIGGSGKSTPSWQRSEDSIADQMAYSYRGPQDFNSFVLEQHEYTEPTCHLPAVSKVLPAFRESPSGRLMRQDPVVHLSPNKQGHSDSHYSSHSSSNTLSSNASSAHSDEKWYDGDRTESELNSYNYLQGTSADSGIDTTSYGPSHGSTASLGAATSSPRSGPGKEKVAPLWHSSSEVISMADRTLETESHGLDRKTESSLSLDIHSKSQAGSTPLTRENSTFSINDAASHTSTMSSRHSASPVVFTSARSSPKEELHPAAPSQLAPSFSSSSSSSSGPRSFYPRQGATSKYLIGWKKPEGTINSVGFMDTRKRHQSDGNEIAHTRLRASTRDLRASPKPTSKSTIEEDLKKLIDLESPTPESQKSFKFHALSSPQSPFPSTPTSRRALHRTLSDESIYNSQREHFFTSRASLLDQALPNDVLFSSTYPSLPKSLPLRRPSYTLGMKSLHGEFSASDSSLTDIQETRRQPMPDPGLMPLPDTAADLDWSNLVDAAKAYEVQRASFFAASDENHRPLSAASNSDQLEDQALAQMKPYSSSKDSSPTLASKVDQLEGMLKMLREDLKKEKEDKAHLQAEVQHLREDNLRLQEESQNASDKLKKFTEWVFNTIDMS

gbh_al121903 = target: T2, gbh_al121903; assay: Y2H; INT ID 185
KIAA1389 protein = target: T5, KIAA1389 protein (human, UniProt Q9P2F8 219-1722); assay: Y2H; INT ID 187
T5 construct: also called cbe_3663966
T5 sequence (Q9P2F8 other isoform, or with tags, fused parts or gaps limits assumed): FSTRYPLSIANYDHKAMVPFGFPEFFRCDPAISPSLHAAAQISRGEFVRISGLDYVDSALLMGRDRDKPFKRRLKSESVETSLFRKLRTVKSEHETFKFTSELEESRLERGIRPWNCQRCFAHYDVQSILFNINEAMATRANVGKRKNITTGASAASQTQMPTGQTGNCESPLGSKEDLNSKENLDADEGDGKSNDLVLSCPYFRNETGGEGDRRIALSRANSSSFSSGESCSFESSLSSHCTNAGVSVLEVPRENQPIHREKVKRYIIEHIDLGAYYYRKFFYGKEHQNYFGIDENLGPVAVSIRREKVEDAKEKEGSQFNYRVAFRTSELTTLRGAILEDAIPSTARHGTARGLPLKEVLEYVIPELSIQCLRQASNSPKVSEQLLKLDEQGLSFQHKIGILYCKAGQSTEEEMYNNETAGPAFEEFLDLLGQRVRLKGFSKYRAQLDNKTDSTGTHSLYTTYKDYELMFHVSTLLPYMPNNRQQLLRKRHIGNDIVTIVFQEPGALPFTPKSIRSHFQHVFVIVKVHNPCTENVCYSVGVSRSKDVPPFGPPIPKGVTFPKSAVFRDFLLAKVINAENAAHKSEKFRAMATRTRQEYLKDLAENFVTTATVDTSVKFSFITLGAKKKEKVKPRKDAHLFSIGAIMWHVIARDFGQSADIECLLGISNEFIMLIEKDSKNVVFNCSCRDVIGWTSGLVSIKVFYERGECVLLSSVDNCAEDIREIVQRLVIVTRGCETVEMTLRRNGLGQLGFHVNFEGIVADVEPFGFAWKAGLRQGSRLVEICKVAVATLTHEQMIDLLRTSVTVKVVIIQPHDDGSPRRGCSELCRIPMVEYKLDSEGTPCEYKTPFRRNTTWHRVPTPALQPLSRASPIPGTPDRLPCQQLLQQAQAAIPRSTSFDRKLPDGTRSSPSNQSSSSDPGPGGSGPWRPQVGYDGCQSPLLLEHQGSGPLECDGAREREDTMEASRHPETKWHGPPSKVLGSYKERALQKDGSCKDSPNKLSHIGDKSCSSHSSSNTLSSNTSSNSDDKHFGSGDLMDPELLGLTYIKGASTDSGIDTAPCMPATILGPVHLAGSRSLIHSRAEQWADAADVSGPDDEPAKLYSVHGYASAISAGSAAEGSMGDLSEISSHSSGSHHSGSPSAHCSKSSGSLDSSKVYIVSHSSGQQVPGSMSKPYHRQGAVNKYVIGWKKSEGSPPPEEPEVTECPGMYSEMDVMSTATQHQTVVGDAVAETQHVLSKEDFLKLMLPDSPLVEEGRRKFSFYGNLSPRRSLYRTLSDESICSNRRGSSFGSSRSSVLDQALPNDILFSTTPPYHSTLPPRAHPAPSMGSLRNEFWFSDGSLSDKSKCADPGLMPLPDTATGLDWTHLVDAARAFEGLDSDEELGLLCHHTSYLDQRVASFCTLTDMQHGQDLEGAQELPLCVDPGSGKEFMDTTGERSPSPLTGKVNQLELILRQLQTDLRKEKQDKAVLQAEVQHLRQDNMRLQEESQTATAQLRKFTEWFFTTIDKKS

[3] = target: B2; assay: Y2H; INT ID 188
[4] = target: T1, Human Papillomavirus 1a E2; assay: Y2H; INT ID 416
[5] = target: T3, Human papillomavirus 16 L1; assay: Y2H; INT ID 196
[6] = target: B2; assay: Y2H; INT ID 191
[7] = target: T1, Human Papillomavirus 1a E2; assay: Y2H; INT ID 410
[8] = target: T1, Human Papillomavirus 1a E2; assay: Y2H; INT ID 383
[9] = target: T3, Human papillomavirus 16 L1; assay: Y2H; INT ID 197
[10] = target: B2; assay: Y2H; INT ID 189

B1
binding result [1]: binds

B2
binding result [2]: binds
binding result (gbh_al121903): binds
binding result (KIAA1389 protein): binds

B3
binding result [3]: binds

B4
binding result [4]: binds

B5
binding result [5]: binds

B6
binding result [6]: binds

B7
binding result [7]: binds

B8
binding result [8]: binds

B9
binding result [9]: binds

B10
binding result [10]: binds
